Measured values reported in US20100092982A1 (University of California, published 2010).

B1: Gal4 DBD-GRIP1c (GRIP1 1122-1462) (other, UniProt P04386 1-147, looked up)
chain: MKLLSSIEQACDICRLKKLKCSKEKPKCAKCLKNNWECRYSPKTKRSPLTRAHLTEVESRLERLEQLFLLIFPREDLDMILKMDSLQDIKALLTGLFVQDNVNKDAVTDRLASVETDMPLTLRQHRISATSSSEESSNKGQRQLTVSSSIMLEQKPPVFPQQYASQAQMAQGGYNPMQDPNFHTMGQRPNYTTLRMQPRPGLRPTGIVQNQPNQLRLQLQHRLQAQQNRQPLMNQISSVSNVNLTLRPGVPTQAPINAQMLAQRQREILNQHLRQRQMQQQVQQRTLMMRGQGLNVTPSMVAPAGLPAAMSNPRIPQANAQQFPFPPNYGISQQPDPGFTGATTPQSPLMSPRMAHTQSPMMQQSQANPAYQPTSDMNGWAQGSMGGNSMFSQQSPPHFGQQANTSMYSNNMNISVSMATNTGGLSSMNQMTGQMSMTSVTSVPTSGLPSMGPEQVNDPALRGGNLFPNQLPGMDMIKQEGDASRKYC
notes: One entry covers both the yeast bait (pGBT9) and the mammalian vector (pM) fusion; also called pGBT9.GRIP1c; pM.GRIP1c
B2: Gal4 DBD-GRIP1 1211-1462 (C-terminal fragment of GRIP1c bisected between 1210 and 1211) (other, UniProt P04386 1-147, looked up)
chain: MKLLSSIEQACDICRLKKLKCSKEKPKCAKCLKNNWECRYSPKTKRSPLTRAHLTEVESRLERLEQLFLLIFPREDLDMILKMDSLQDIKALLTGLFVQDNVNKDAVTDRLASVETDMPLTLRQHRISATSSSEESSNKGQRQLTVSSSVSNVNLTLRPGVPTQAPINAQMLAQRQREILNQHLRQRQMQQQVQQRTLMMRGQGLNVTPSMVAPAGLPAAMSNPRIPQANAQQFPFPPNYGISQQPDPGFTGATTPQSPLMSPRMAHTQSPMMQQSQANPAYQPTSDMNGWAQGSMGGNSMFSQQSPPHFGQQANTSMYSNNMNISVSMATNTGGLSSMNQMTGQMSMTSVTSVPTSGLPSMGPEQVNDPALRGGNLFPNQLPGMDMIKQEGDASRKYC
notes: also called the C-terminal fragment
B3: Gal4 DBD-GRIP1 fragment 1211-1350 (other, UniProt P04386 1-147, looked up)
chain: MKLLSSIEQACDICRLKKLKCSKEKPKCAKCLKNNWECRYSPKTKRSPLTRAHLTEVESRLERLEQLFLLIFPREDLDMILKMDSLQDIKALLTGLFVQDNVNKDAVTDRLASVETDMPLTLRQHRISATSSSEESSNKGQRQLTVSSSVSNVNLTLRPGVPTQAPINAQMLAQRQREILNQHLRQRQMQQQVQQRTLMMRGQGLNVTPSMVAPAGLPAAMSNPRIPQANAQQFPFPPNYGISQQPDPGFTGATTPQSPLMSPRMAHTQSPMMQQSQANPAYQPTSD
B4: GST-CARM1 (enzyme)
chain: AAAATAVGPGAGSAGVAGPGGAGPCATVSVFPGARLLTIGDANGEIQRHAEQQALRLEVRAGPDAAGIALYSHEDVCVFKCSVSRETECSRVGRQSFIITLGCNSVLIQFATPHDFCSFYNILKTCRGHTLERSVFSERTEESSAVQYFQFYGYLSQQQNMMQDYVRTGTYQRAILQNHTDFKDKIVLDVGCGSGILSFFAAQAGARKIYAVEASTMAQHAEVLVKSNNLTDRIVVIPGKVEEVSLPEQVDIIISEPMGYMLFNERMLESYLHAKKYLKPSGNMFPTIGDVHLAPFTDEQLYMEQFTKANFRYQPSFHGVDLSALRGAAVDEYFRQPVVDTFDIRILMAKSVKYTVNFLEAKEGDLHRIEIPFKFHMLHSGLVHGLAFWFDVAFIGSIMTVWLSTAPTEPLTHWYQVRCLFQSPLFAKAGDTLSGTCLLIANKRQSYDISIVAQVDQTGSKSSNLLDLKNPFFRYTGTTPSPPPGSHYTSPSENMWNTGSTYNLSSGVAVAGMPTAYDLSSVIAGGSSVGHNNLIPLANTGIVNHTHSRMGSIMSTGIVQGSSGAQGGGGSSSAHYAVNNQFTMGGPAISMASPMSIPTNTMHYGS
notes: also called GST fusion protein of CARM1; glutathione S-transferase-CARM1; not shown: glutathione S-transferase (GST) as encoded by vector pGEX-4T1 (Pharmacia)
B5: GRIP1 amino acids 730-1121, translated in vitro (other, UniProt Q61026 730-1121, looked up)
chain: VKQEPASPKKKENALLRYLLDKDDTKDIGLPEITPKLERLDSKTDPASNTKLIAMKTVKEEVSFEPSDQPGSELDNLEEILDDLQNSQLPQLFPDTRPGAPTGSVDKQAIINDLMQLTADSSPVPPAGAQKAALRMSQSTFNNPRPGQLGRLLPNQNLPLDITLQSPTGAGPFPPIRNSSPYSVIPQPGMMGNQGMLGSQGNLGNNSTGMIGSSTSRPSMPSGEWAPQSPAVRVTCAATTGAMNRPVQGGMIRNPTASIPMRANSQPGQRQMLQSQVMNIGPSELEMNMGGPQYNQQQAPPNQTAPWPESILPIDQASFASQNRQPFGSSPDDLLCPHPAAESPSDEGALLDQLYLALRNFDGLEEIDRALGIPELVSQSQAVDAEQFSSQE
notes: range 730-1121; also called GRIP1 (730-1121); not shown: translation start and HA tag encoded by pSG5.HA
B6: Gal4 DBD-GRIP1 amino acids 1121-1210 (N-terminal fragment of GRIP1c bisected between 1210 and 1211) (other, UniProt P04386 1-147, looked up)
chain: MKLLSSIEQACDICRLKKLKCSKEKPKCAKCLKNNWECRYSPKTKRSPLTRAHLTEVESRLERLEQLFLLIFPREDLDMILKMDSLQDIKALLTGLFVQDNVNKDAVTDRLASVETDMPLTLRQHRISATSSSEESSNKGQRQLTVSESSIMLEQKPPVFPQQYASQAQMAQGGYNPMQDPNFHTMGQRPNYTTLRMQPRPGLRPTGIVQNQPNQLRLQLQHRLQAQQNRQPLMNQI
notes: also called the N-terminal fragment
B7: Gal4 DBD-GRIP1c N-terminal fragment ending at amino acid 1305 (GRIP1c bisected between 1305 and 1306) (other, UniProt P04386 1-147, looked up)
chain: MKLLSSIEQACDICRLKKLKCSKEKPKCAKCLKNNWECRYSPKTKRSPLTRAHLTEVESRLERLEQLFLLIFPREDLDMILKMDSLQDIKALLTGLFVQDNVNKDAVTDRLASVETDMPLTLRQHRISATSSSEESSNKGQRQLTVSSSIMLEQKPPVFPQQYASQAQMAQGGYNPMQDPNFHTMGQRPNYTTLRMQPRPGLRPTGIVQNQPNQLRLQLQHRLQAQQNRQPLMNQISSVSNVNLTLRPGVPTQAPINAQMLAQRQREILNQHLRQRQMQQQVQQRTLMMRGQGLNVTPSMVAPAGLPAAMSNPRIPQANAQQFPFPPNYGI
B8: Gal4 DBD-GRIP1c C-terminal fragment starting at amino acid 1306 (GRIP1c bisected between 1305 and 1306) (other, UniProt P04386 1-147, looked up)
chain: MKLLSSIEQACDICRLKKLKCSKEKPKCAKCLKNNWECRYSPKTKRSPLTRAHLTEVESRLERLEQLFLLIFPREDLDMILKMDSLQDIKALLTGLFVQDNVNKDAVTDRLASVETDMPLTLRQHRISATSSSEESSNKGQRQLTVSSQQPDPGFTGATTPQSPLMSPRMAHTQSPMMQQSQANPAYQPTSDMNGWAQGSMGGNSMFSQQSPPHFGQQANTSMYSNNMNISVSMATNTGGLSSMNQMTGQMSMTSVTSVPTSGLPSMGPEQVNDPALRGGNLFPNQLPGMDMIKQEGDASRKYC

Experiments:
[1] = molecular target: T1, CARM1 fused to Gal4AD (pGAD10.CARM1) (mouse, UniProt Q4AE70 3-651 (rat entry)); assay: yeast two-hybrid, β-galactosidase activity (figure legend)
T1 construct: Yeast two-hybrid prey; also called CARM1-AD hybrid protein; CARM1(3-608)
T1 sequence: B4 chain
Protocol: (§1) Sub-fragments of the GRIP1 C-terminal domain (GRIP lc), fused with the Gal4 DBD, were tested in the yeast two-hybrid system as described previously (Ding, X. F. et al. (1998) Mol. Endocrinol. 12:302) for binding to CARM1 or to α-actinin, fused to Gal4AD. β-galactosidase (β-gal) activity indicates interaction between the two hybrid proteins.

[2] = molecular target: T1, CARM1 fused to Gal4AD (pGAD10.CARM1); assay: yeast two-hybrid, β-galactosidase activity
Protocol: as §1

[3] = molecular target: T2, GRIP1 amino acids 5-765, translated in vitro (UniProt Q61026 5-765); assay: GST pull-down on glutathione agarose beads, labeled in vitro translated fragment, SDS-PAGE
T2 construct: range 5-765; also called GRIP1 (5-765); not shown: translation start and HA tag encoded by pSG5.HA
Protocol: (§2) The binding of GRIP1c to CARM1 observed in the yeast two-hybrid system was confirmed in vitro, by incubating glutathione S-transferase (GST) fusion proteins attached to glutathione agarose beads with labeled proteins or protein fragments translated in vitro. […] Conversely, GST-GRIP1c bound CARM1 and the VLD to AAA mutant of CARM1 (FIG. 3B). GST-CARM1 not only bound GRIP1 but also the other two members of the p160 coactivator family, SRC-1a and ACTR (FIG. 3A). […] GST fusion proteins of CARM1 or the indicated GRIP1 fragments produced in E. coli strain BL21 (Stratagene), were bound to glutathione-agarose beads and incubated with labeled full length CARM1 or p160 coactivators or GRIP1 fragments translated in vitro from vector pSG5.HA-CARM1, pSG5.HA-GRIP1, pSG5.HA-SRC-1a (Chen, D. et al. 1999), or pCMX.ACTR (Chen et al. 1997); bound labeled proteins were eluted and analyzed by SDS polyacrylamide gel electrophoresis as described previously (Hong et al. 1996). A mutant form of CARM1 with the triple amino acid substitution (VLD changed to AAA) shown in FIG. 1 still retains the ability to bind to the C-terminal fragment of GRIP1.

[4] = molecular target: B4; assay: as above
Protocol: as §2

T2 sequence (Q61026 5-765): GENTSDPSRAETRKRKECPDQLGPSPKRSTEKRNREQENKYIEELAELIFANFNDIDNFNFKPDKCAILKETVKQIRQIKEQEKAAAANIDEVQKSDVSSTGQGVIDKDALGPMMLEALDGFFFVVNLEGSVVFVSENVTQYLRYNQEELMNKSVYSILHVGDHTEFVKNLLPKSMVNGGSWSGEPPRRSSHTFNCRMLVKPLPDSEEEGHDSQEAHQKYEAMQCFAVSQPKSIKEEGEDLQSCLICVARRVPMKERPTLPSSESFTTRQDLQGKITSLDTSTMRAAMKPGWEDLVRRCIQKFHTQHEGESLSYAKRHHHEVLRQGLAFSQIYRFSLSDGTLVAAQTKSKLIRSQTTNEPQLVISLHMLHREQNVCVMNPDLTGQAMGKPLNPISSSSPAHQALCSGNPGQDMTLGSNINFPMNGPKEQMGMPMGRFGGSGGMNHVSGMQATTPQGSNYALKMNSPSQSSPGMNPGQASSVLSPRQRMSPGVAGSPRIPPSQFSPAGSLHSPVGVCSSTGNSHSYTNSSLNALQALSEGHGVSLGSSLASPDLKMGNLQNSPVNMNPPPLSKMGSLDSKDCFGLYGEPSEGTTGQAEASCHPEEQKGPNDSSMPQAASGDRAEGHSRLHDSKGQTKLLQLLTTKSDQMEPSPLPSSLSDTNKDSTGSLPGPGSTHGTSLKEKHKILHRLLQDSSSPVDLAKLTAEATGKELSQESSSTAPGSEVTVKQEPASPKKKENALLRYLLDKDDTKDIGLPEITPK

## B1
[1]
  binding result: binds

## B2
[2]
  binding result: binds

## B3
[2]
  binding result: binds

## B4
[3]
  binding result: no binding

## B5
[4]
  binding result: no binding

## B6
[2]
  binding result: no binding

## B7
[2]
  binding result: no binding

## B8
[2]
  binding result: no binding
